Experiments:
calmodulin [1] = target: T1, calmodulin (Homo sapiens, UniProt P0DP23); assay: Change in conformational entropy of calmodulin on binding a target domain, estimated from methyl O^2axis (harmonic oscillator model); conditions: 308 K; for TSconf: absolute conformational entropy of calmodulin in complex; for −TΔSconf: calmodulin upon binding target domain, free CaM reference state; for TSrotamer(fast) / TSrotamer(slow): classical entropy; for TSrotamer(fast): fast rotamer interconversion; for TSrotamer(slow): slowly interconverting conformers; for TSharm: motion within a rotameric well, simple harmonic oscillator
Source text: Guided by Karplus and co-workers (see Karplus M et al. (1987)), the present approach connects the change in internal protein dynamics to the conformational entropy, describing the protein as a disjoint multidimensional harmonic well: Sconf=ΣpiS^hi−kBΣpilnpi (2) where S^hi represents the entropy manifested by fast intra-well motion and the second term corresponds to the classical conformational entropy arising from the i=1 . . . N distinct conformations. Here S^hi is obtained from interpretation of local order parameters, which is model-dependent. The present approach finds its modern roots in the work described in Akke, M., Bruschweiler, R. & Palmer, A. G. NMR order parameters and free-energy—an analytical approach and its application to cooperative Ca^2+ binding by calbindin-D(9k). J. Am. Chem. Soc. 115, 9832-9833 (1993), in which a specific motional model (potential energy function) is used to provide a parametric relationship between what is measured, the squared generalized order parameter, and what is sought, a thermodynamic quantity such as the entropy.
A simple harmonic oscillator treatment was selected to make this connection. Li, Z., Raychaudhuri, S. & Wand, A. J. Insights into the local residual entropy of proteins provided by NMR relaxation. Prot. Sci. 5, 2647-2650 (1996). It is important to note that the absolute entropies obtained in this way are very dependent on the details of the potential energy function but that differences in entropy calculated from changes in O^2 are fairly insensitive to the model used. Li, Z, et al. (1996); Lee, A. L. et al. Temperature dependence of the internal dynamics of a calmodulin peptide complex. Biochemistry 41, 13814-13825 (2002). As the reference state for obtaining ΔSconf we use calcium-saturated calmodulin. The second term of equation (2) represents classical entropy arising from the local heterogeneity of side-chain conformers. This can be manifested on a range of timescales. […] This was interpreted as classical entropy with the population of each state (pi) estimated from the intensity of cross peaks. […] Lee, A. L. et al. (2002). This also represents conformational entropy and was estimated using a previously described model. Id.
The change in conformational entropy of calmodulin on binding a target domain was estimated as the sum of three terms: ΔSconf=ΔSharm+ΔSrotamer(fast)+ΔSrotamer(slow). Sharm was obtained from O^2axis parameters using a harmonic oscillator model. Li, Z., Raychaudhuri, S. & Wand, A. J. Insights into the local residual entropy of proteins provided by NMR relaxation. Prot. Sci. 5, 2647-2650 (1996). Free calcium-saturated calmodulin was used as the reference state in site-to-site comparisons. To normalize the unequal number of resolved sites among the complexes, the average methyl order parameter within a complex was assigned to each unresolved site of that complex. A classical entropy term ΔSrotamer(fast) was added to represent minor conformers that are sampled owing to fast rotameric interconversion. Lee, A. L. et al. Temperature dependence of the internal dynamics of a calmodulin peptide complex. Biochemistry 41, 13814-13825 (2002). For the small number of sites having multiple conformations in slow exchange on the NMR chemical shift timescale, an additional classical entropy contribution ΔSrotamer(slow) was calculated on the basis of measured intensities. Populations of the three motional classes were obtained using nonlinear regression of a three gaussian model to the observed order parameter distributions. […]

calmodulin [2] = target: T1, calmodulin; assay: Populations of J, α, ω motional classes of calmodulin methyl O^2axis distributions in the complexes
Method: FIG. 3a, provides a histogram of the sum of the O^2axis parameter distributions of calmodulin in the six individual complexes obtained at 35° C. The solid line represents the best-fitted solution to a 3-gaussian distribution with all nine parameters fitted. FIG. 3b provides histograms of the O^2axis parameter distributions of calmodulin in the individual complexes. […]
The summed distribution of O^2axis axis parameters of all six complexes was fitted to a random distribution and to one, two- and three-gaussian distribution models. […] (3) where Ai, Ci and Wi define the population, centre and breadth, respectively, of the J, α and ω classes of motion.
The nine parameters were fitted using the nonlinear regression routine of SigmaPlot 2000 (SPSS). […] These centres were fixed in subsequent fitting of the O^2axis distributions of the individual complexes, from which the relative populations of each motional class were obtained. Uncertainties in the fitted populations were estimated by varying the O^2axis parameters by two standard deviations. […] The total change in conformational entropy of calmodulin on binding a target domain was calculated as the sum of three terms: ΔSconf=ΔSharm+ΔSrotamer(fast)+ΔSrotamer(slow). Changes in conformational entropy ΔSrotamer(fast) expressed as changes in motion within a rotameric well on the fast timescale (sub-ns) were obtained from the experimentally determined O^2axis parameters using a simple harmonic oscillator model. Li Z et al. (1996). To calculate changes in entropy derived from motion of the same oscillator, site-to-site comparison to free calcium-saturated calmodulin was used to provide a reference state. The change in the entropy reflected by the change in the motion of each methyl symmetry axis was estimated using ΔSharm=−18×ΔO^2axis J mol^−1 K^−1. See Li Z et al. (1996) for further details of the model. To normalize the unequal number of resolved sites among the complexes, the average methyl order parameter within a complex was assigned to each unresolved site of that complex. A classical entropy term (ΔSrotamer(fast)) was added to represent minor conformers that are sampled owing to fast rotameric interconversion that also contributes to the generalized order parameter. Lee, A. L. et al. Temperature dependence of the internal dynamics of a calmodulin peptide complex. Biochemistry 41, 13814-13825 (2002).

[3] = area under fitted Gaussian, fixed centres
[4] = percentage of counts in class (number of observations), O^2axis 0.5 to 0.7
[5] = percentage of counts in class (number of observations), O^2axis above 0.7
[6] = percentage of counts in class (number of observations), O^2axis up to 0.5

| Substance | TSconf (calmodulin [1]) | −TΔSconf (calmodulin [1]) | TSrotamer(fast) (calmodulin [1]) | TSrotamer(slow) (calmodulin [1]) | TSharm (calmodulin [1]) | % J (calmodulin [2]; [3]) | % α (calmodulin [2]; [3]) | % ω (calmodulin [2]; [3]) | % α (calmodulin [2]; [4]) | % ω (calmodulin [2]; [5]) | % J (calmodulin [2]; [6]) |
| --- | --- | --- | --- | --- | --- | --- | --- | --- | --- | --- | --- |
| (COOH-FPNGFSRKRLMSKVLIVTTWSPLL [CaMKKα(p)] | 168.6 kcal/mol | +63.5 kJ/mol | 23.5 kcal/mol | 2.25 kcal/mol | 142.9 kcal/mol | 38.5% | 21.3% | 40.3% | 30% | 35% | 35% |
| AKSKWKQAFNATAVVRHMRKLQ (listed as Homo sapiens) [CaMKI(p)] | 168 kcal/mol | +66.0 kJ/mol | 22.6 kcal/mol | 3.59 kcal/mol | 141.8 kcal/mol | 38.2% | 24.8% | 37.0% | 30% | 32% | 38% |
| RKKTFKEVANAVKISASLMG [eNOS(p)] | 172.8 kcal/mol | +46.1 kJ/mol | 24.21 kcal/mol | 3.97 kcal/mol | 144.6 kcal/mol | 45.6% | 18.4% | 36.0% | 30% | 33% | 38% |

Results, then the substance that gave them:

| TSconf (calmodulin [1]) | −TΔSconf (calmodulin [1]) | TSrotamer(fast) (calmodulin [1]) | TSrotamer(slow) (calmodulin [1]) | TSharm (calmodulin [1]) | % J (calmodulin [2]; [3]) | % α (calmodulin [2]; [3]) | % ω (calmodulin [2]; [3]) | % α (calmodulin [2]; [4]) | % ω (calmodulin [2]; [5]) | % J (calmodulin [2]; [6]) | Substance |
| --- | --- | --- | --- | --- | --- | --- | --- | --- | --- | --- | --- |
| 180 kcal/mol | +15.9 kJ/mol | 26.31 kcal/mol | 5.93 kcal/mol | 147.8 kcal/mol | 51.6% | 14.7% | 33.7% | 25% | 30% | 45% | KRRAIGFKKLAEAVKFSAKLMGQ [nNOS(p)] |
| 177.9 kcal/mol | +24.9 kJ/mol | 25.96 kcal/mol | 3.56 kcal/mol | 148.3 kcal/mol | 48.3% | 18.9% | 32.8% | 33% | 20% | 46% | QTEKMWQRLKGILRSLVKQ [PDE(p)] |

Source: patent US8652790B2, “Conformational entropy in molecular recognition” (The Trustees of the University of Pennsylvania, priority 2007, dated 2014)
